The source of these data is patent publication US20230203182A1 (NAVROGEN, published 2023).

T1: human CD20 on Ramos cells (human, UniProt P11836 1-297)
T1 construct: whole, on cells; also called MS4A1
T1 sequence (looked up): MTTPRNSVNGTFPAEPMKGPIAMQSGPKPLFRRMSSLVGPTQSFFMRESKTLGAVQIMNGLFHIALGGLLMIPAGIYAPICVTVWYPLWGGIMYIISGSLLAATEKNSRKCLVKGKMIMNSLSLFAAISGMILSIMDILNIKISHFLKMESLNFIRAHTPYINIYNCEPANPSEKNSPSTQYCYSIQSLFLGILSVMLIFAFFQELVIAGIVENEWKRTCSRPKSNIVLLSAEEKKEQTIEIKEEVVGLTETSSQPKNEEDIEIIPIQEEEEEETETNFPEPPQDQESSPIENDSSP

B1: rituximab (parental antibody) (antibody, human IgG1, kappa)
heavy: not shown
light: QIVLSQSPAILSASPGEKVTMTCRASSSVSYIHWFQQKPGSSPKPWIYATSNLASGVPVRFSGSGSGTSYSLTISRVEAEDAATYYCQQWTSNPPTFGGGTKLEIKRTVAAPSVFIFPPSDEQLKSGTASVVCLLNNFYPREAKVQWKVDNALQSGNSQESVTEQDSKDSTYSLSSTLTLSKADYEKHKVYACEVTHQGLSSPVTKSFNRGEC
notes: IgG1-type anti-CD20 antibody; Biotinylated when used as probe in the CA125 and CD20-peptide ELISAs; also called RTX; RTX-WT
B2: RTX-MT clone 148 (antibody, human IgG1, kappa, V domains shown)
VH: QVQLQQPGAELVKPGASVKMSCKASGYTFTSYNMHWVKQTPGRGLEWIGAIYPGNGDTSYNQKFKGKATLTADKSSSTAYMQLSSLTSEDSAVYYCARSTYFGGDWYFNVWGAGTTVTVSA
VL: QIVLSQSPAILSASPGEKVTMTCRASSSVSYIHWFQQKPGSSPKPWIYATSNLASGVPVRFSGSGSGTSYSLTISRVEAEDAATYYCQQWTSNPPTFGGGTKLEIKR
notes: Biotinylated in the ELISAs
B3: RTX-MT clone 198 (antibody, human IgG1, kappa, V domains shown)
VH: B2 VH with F102Y, Y107C
VL: B2 VL
notes: Biotinylated in the ELISAs
B4: RTX-MT clone 164 (antibody, human IgG1, kappa, V domains shown)
VH: B2 VH with F102Y, G103C
VL: B2 VL
notes: Biotinylated in the ELISAs
B5: RTX-MT clone 199 (antibody, human IgG1, kappa, V domains shown)
VH: B2 VH with F102Y, F108L
VL: B2 VL
notes: Biotinylated in the ELISAs
B6: RTX-MT clone 166 (antibody, human IgG1, kappa)
heavy: not shown
light: B1 light
notes: Biotinylated in the ELISAs; also called N109D+P131S+S136Y; triple mutant RTX-MT clone 166
B7: human complement protein C4B (other)
chain: KPRLLLFSPSVVHLGVPLSVGVQLQDVPRGQVVKGSVFLRNPSRNNVPCSPKVDFTLSSERDFALLSLQVPLKDAKSCGLHQLLRGPEVQLVAHSPWLKDSLSRTTNIQGINLLFSSRRGHLFLQTDQPIYNPGQRVRYRVFALDQKMRPSTDTITVMVENSHGLRVRKKEVYMPSSIFQDDFVIPDISEPGTWKISARFSDGLESNSSTQFEVKKYVLPNFEVKITPGKPYILTVPGHLDEMQLDIQARYIYGKPVQGVAYVRFGLLDEDGKKTFFRGLESQTKLVNGQSHISLSKAEFQDALEKLNMGITDLQGLRLYVAAAIIESPGGEMEEAELTSWYFVSSPFSLDLSKTKRHLVPGAPFLLQALVREMSGSPASGIPVKVSATVSSPGSVPEVQDIQQNTDGSGQVSIPIIIPQTISELQLSVSAGSPHPAIARLTVAAPPSGGPGFLSIERPDSRPPRVGDTLNLNLRAVGSGATFSHYYYMILSRGQIVFMNREPKRTLTSVSVFVDHHLAPSFYFVAFYYHGDHPVANSLRVDVQAGACEGKLELSVDGAKQYRNGESVKLHLETDSLALVALGALDTALYAAGSKSHKPLNMGKVFEAMNSYDLGCGPGGGDSALQVFQAAGLAFSDGDQWTLSRKRLSCPKEKTTRKKRNVNFQKAINEKLGQYASPTAKRCCQDGVTRLPMMRSCEQRAARVQQPDCREPFLSCCQFAESLRKKSRDKGQAGLQRALEILQEEDLIDEDDIPVRSFFPENWLWRVETVDRFQILTLWLPDSLTTWEIHGLSLSKTKGLCVATPVQLRVFREFHLHLRLPMSVRRFEQLELRPVLYNYLDKNLTVSVHVSPVEGLCLAGGGGLAQQVLVPAGSARPVAFSVVPTAATAVSLKVVARGSFEFPVGDAVSKVLQIEKEGAIHREELVYELNPLDHRGRTLEIPGNSDPNMIPDGDFNSYVRVTASDPLDTLGSEGALSPGGVASLLRLPRGCGEQTMIYLAPTLAASRYLDKTEQWSTLPPETKDHAVDLIQKGYMRIQQFRKADGSYAAWLSRGSSTWLTAFVLKVLSLAQEQVGGSPEKLQETSNWLLSQQQADGSFQDLSPVIHRSMQGGLVGNDETVALTAFVTIALHHGLAVFQDEGAEPLKQRVEASISKASSFLGEKASAGLLGAHAAAITAYALTLTKAPADLRGVAHNNLMAMAQETGDNLYWGSVTGSQSNAVSPTPAPRNPSDPMPQAPALWIETTAYALLHLLLHEGKAEMADQAAAWLTRQGSFQGGFRSTQDTVIALDALSAYWIASHTTEERGLNVTLSSTGRNGFKSHALQLNNRQIRGLEEELQFSLGSKINVKVGGNSKGTLKVLRTYNVLDMKNTTCQDLQIEVTVKGHVEYTMEANEDYEDYEYDELPAKDDPDAPLQPVTPLQLFEGRRNRRRREAPKVVEEQESRVHYTVCIWRNGKVGLSGMAIADVTLLSGFHALRADLEKLTSLSDRYVSHFETEGPHVLLYFDSVPTSRECVGFEAVQEVPVGLVQPASATLYDYYNPERRCSVFYGAPSKSRLLATLCSAEVCQCAEGKCPRQRRALERGLQDEDGYRMKFACYYPRVEYGFQVKVLREDSRAAFRLFETKITQVLHFTKDVKAAANQMRNFLVRASCRLRLEPGKEYLIMGLDGATYDLEGHPQYLLDSNSWIEEMPSERLCRSTRQRAACAQLNDFLQEYGTQGCQV
notes: also called enhancer protein
B8: RTX-MT N109D+S136Y (antibody, human IgG1, kappa)
heavy: not shown
light: B1 light
B9: RTX N109D (antibody, human IgG1, kappa)
heavy: not shown
light: B1 light
notes: also called RTX-MT N109D; RTX MT N109D

Substitutions are numbered along the chain they refer to. Numbers in names are those of the source.

The target in the first test is T2, human CA125/MUC16 protein (human, UniProt Q8WXI7 1-14451, limits assumed). The experiment in a line: cell-based or functional assay.
With B1, the “suppression of CDC activity by CA125 (Daudi cells)” value (“suppression of CDC activity” below) turned out to be 32%.

Consider B2, for which the “suppression of CDC activity” value is at most 15%.

As to B3, the “suppression of CDC activity” value is at most 15%.

Turning to B4, the “suppression of CDC activity” value is at most 15%.

On to B5, for which the “suppression of CDC activity” value is at most 15%.

B6: the “suppression of CDC activity” value was at most 15%.

In another test the target is T2, human CA125/MUC16 protein. The experiment in a line: direct binding ELISA, CA125-coated wells, biotinylated C4B. On the technique in general: In an ELISA, binding on a coated surface is turned into a signal by an enzyme label.
Regarding B7, the binding result is on record as “no binding”.

The target of a further test is T3, human CD16a (Fc-gamma activating receptor FCGR3A), biotinylated (human, UniProt P08637 17-208, limits assumed, biotinylated).
T3 construct: Soluble biotinylated probe in ELISA; construct not described; also called CD16a-biotin; Fc receptor
T3 sequence (P08637 17-208 limits assumed): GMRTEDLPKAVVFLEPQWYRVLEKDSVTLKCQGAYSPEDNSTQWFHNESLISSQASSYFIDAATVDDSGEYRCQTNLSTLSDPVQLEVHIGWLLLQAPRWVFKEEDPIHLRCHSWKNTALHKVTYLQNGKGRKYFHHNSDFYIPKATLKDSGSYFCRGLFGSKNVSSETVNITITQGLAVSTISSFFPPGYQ
The experiment in a line: CD16a ELISA, percentage of binding with CA125 versus no CA125 (FIG. 7A).
Regarding B6, the binding result is given as “binds”.

With B8, the binding result is listed as “binds”.

Another test concerns the target T2, human CA125/MUC16 protein. Briefly: ELISA, CA125-coated (15 KU/mL) and CD20 peptide-coated wells, biotinylated antibody. An excerpt:
FIG. 4. […] Each of these antibodies were biotinylated and retested for CD20 and CA125 binding via ELISA. Briefly, antibodies were biotinylated using the EZ-Link™ Sulfo-NHS-Biotin (ThermoScientific) following the manufacturer’s instructions. Biotinylated antibodies where quantified by Nanodrop and validated for signal intensity using an anti-IgG ELISA capture assay to measure the signal intensity for each antibody. […] Wells were washed and then secondarily probed with streptavidin-HRP and quantified using TMB substrate as described above on a Varioskan plate reader at 450 nm. […] Any signal greater than a 20% decrease in CA125 was considered positive.
B2: the “percent decrease in CA125 binding vs parental (ratio of CD20 to CA125 binding), selection criterion” value was over 20%.

For the molecule B3, the “percent decrease in CA125 binding vs parental (ratio of CD20 to CA125 binding), selection criterion” value is over 20%.

Regarding B4, the “percent decrease in CA125 binding vs parental (ratio of CD20 to CA125 binding), selection criterion” value is over 20%.

In the case of B5, the “percent decrease in CA125 binding vs parental (ratio of CD20 to CA125 binding), selection criterion” value was over 20%.

Another test concerns the target T1, human CD20 on Ramos cells. The experiment in a line: cell-based fluorescent saturation binding on Ramos cells, Jurkat background subtracted, one-site nonlinear regression.
In the case of B1, the affinity, expressed as Kd, was 0.0206 µM.

Regarding B9, the Kd (commonly the constant that tells how readily two partners part at equilibrium) was 0.0305 µM.
